Test results taken from patent publication US20180155405A1 (AB INITIO BIOTHERAPEUTICS, published 2018).
Read-outs that look alike come from different tables or passages of the source.

Key:
[1] = molecular target: T1, biotinylated human CD47 (IgSF domain, residues 1-117, C15G) (human, UniProt Q08722 19-135, biotinylated in vitro with BirA ligase on the biotin acceptor peptide tag); experiment: SPR (Biacore T100), biotinylated CD47 on SA chip, 1:1 Langmuir model
T1 construct: range 1-117; Captured on a Biacore SA chip; also called biotinylated CD47

[2] = molecular target: T2, CD47 on the surface of GFP-luciferase+ DLD1-Tg cells (UniProt Q08722 19-323, limits assumed)
T2 construct: whole, on cells; also called CD47+ cells; CD47+ PD-L1+ cells

[3] = molecular target: T3, human PD-L1 (human, UniProt Q9NZQ7 19-239, limits assumed, biotinylated in Examples 4 and 5); experiment: SPR, HGV3 held on chip-captured biotinylated human CD47, then PD-L1 injected; the PD-L1 concentration is not shown
T3 construct: also called biotinylated human PD-L1

[4] = molecular target: T4, CD47 on human cells (CD47+, PDL1+); experiment: in vivo receptor occupancy: NSG mice injected with GV3 on three consecutive days, spleen cells harvested 1 hr and 24 hrs after the last injection, free CD47 read by SIRPA-tetramer binding (FACS) on human HL60-Tg(hPDL1, GFP) cells
T4 construct: These cells also carry human PD-L1; also called HL60-Tg(hPDL1, GFP) cells isolated from the spleen; human CD47+ PDL1+ cells

[5] = molecular target: T5, CD47 on total splenic cells; experiment: in vivo receptor occupancy: NSG mice injected with GV3 on three consecutive days, spleen cells harvested 1 hr and 24 hrs after the last injection, free CD47 read by SIRPA-tetramer binding (FACS)
T5 construct: also called % occupied CD47
T5 sequence (Q61735 whole entry, species assumed, looked up): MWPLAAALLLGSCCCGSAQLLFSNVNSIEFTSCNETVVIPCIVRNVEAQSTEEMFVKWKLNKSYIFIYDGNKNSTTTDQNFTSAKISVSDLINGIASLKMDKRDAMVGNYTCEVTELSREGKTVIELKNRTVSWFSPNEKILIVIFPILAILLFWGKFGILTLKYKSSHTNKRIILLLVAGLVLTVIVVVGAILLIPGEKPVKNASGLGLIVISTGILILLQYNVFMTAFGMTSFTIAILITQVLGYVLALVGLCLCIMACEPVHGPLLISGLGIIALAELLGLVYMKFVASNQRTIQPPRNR

[6] = molecular target: T2, CD47 on the surface of GFP-luciferase+ …; experiment: flow cytometry competition on DLD1-Tg(GFP-Luc) cells (CD47+), competitor 50 nM biotinylated SIRP-alpha tetramer
[7] = molecular target: T6, CD47 on mouse splenocytes (mouse, UniProt Q61735); experiment: in vivo receptor occupancy: NSG mice injected with GV3 on three consecutive days, spleen cells harvested 1 hr and 24 hrs after the last injection, free CD47 read by SIRPA-tetramer binding (FACS) on mouse splenocytes
T6 construct: cell surface, full length; also called % occupied CD47
T6 sequence (receptor on cells, looked up): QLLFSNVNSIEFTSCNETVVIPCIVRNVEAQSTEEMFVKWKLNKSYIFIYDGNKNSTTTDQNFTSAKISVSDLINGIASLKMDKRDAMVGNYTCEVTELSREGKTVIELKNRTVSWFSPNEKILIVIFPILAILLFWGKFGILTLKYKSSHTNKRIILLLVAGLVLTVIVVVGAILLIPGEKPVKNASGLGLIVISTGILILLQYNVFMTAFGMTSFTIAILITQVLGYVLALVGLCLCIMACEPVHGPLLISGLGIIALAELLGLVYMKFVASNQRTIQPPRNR

T1 sequence (Q08722 other isoform, or with tags, fused parts or gaps C15G C15G limits assumed): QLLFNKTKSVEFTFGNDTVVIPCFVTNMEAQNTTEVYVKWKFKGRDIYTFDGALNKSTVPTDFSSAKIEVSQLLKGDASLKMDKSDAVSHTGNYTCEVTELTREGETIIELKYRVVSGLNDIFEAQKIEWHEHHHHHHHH
T2 sequence (Q08722 19-323 limits assumed): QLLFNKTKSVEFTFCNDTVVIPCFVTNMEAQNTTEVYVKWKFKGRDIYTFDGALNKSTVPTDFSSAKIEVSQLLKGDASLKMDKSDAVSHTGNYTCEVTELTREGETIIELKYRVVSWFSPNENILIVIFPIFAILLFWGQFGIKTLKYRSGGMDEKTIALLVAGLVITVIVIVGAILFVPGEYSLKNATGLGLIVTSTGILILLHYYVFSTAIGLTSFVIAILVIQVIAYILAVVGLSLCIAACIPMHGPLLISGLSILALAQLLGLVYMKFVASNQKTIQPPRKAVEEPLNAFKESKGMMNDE
T3 sequence (Q9NZQ7 19-239 limits assumed): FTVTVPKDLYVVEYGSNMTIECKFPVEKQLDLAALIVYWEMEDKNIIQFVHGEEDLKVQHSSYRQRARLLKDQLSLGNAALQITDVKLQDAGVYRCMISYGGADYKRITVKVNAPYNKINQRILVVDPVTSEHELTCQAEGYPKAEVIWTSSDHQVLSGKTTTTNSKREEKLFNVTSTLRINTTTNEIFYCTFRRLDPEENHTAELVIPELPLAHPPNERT
T4 sequence (chain, as listed by the source limits assumed): as the sequence (Q08722 19-323 limits assumed) above

- Kd [1]: 0.092 nM
- dissociation half-life T1/2 [1]: ~0.733 h
- IC50 (read off the curve) [2]: ~1 nM
- binding result [3]: no binding
- RO half-life [4]: ~30 h
- RO half-life [5]: ~10 h
- IC50 (read off the curve) [6]: ~0.7 nM
- RO half-life [7]: ~5 h
B1: SIRP-gamma variant GV3 (designed binder)
chain: EEELQIIQPEKLLLVTVGKTATLHCTITSLFPVGPIQWFRGVGPGRVLIYNQKDGHFPRVTTVSDGTKRNNMDFSIRISSITPADVGTYYCVKFRKGSPEDVEFKSGPGTEMALGAKPSHHHHHHHH
notes: Monomers were made as MBP fusions in E. coli and MBP was removed with 3C protease; also called HGV3; human GV3
